Reference: publication PMC6026317, “Molecular elements in FGF19 and FGF21 defining KLB/FGFR activity and specificity” (Molecular Metabolism, 2018)

Key:
[1] = biological target: Human β-Klotho (KLB) on 293/KLB cells (human) (UniProt Q86Z14)
[2] = biological target: Human β-Klotho (KLB) on 293/KLB cells (human) (UniProt Q86Z14); remark: listed apart in the source

Human β-Klotho (KLB) on 293/KLB cells (human), sequence (Q86Z14 whole entry): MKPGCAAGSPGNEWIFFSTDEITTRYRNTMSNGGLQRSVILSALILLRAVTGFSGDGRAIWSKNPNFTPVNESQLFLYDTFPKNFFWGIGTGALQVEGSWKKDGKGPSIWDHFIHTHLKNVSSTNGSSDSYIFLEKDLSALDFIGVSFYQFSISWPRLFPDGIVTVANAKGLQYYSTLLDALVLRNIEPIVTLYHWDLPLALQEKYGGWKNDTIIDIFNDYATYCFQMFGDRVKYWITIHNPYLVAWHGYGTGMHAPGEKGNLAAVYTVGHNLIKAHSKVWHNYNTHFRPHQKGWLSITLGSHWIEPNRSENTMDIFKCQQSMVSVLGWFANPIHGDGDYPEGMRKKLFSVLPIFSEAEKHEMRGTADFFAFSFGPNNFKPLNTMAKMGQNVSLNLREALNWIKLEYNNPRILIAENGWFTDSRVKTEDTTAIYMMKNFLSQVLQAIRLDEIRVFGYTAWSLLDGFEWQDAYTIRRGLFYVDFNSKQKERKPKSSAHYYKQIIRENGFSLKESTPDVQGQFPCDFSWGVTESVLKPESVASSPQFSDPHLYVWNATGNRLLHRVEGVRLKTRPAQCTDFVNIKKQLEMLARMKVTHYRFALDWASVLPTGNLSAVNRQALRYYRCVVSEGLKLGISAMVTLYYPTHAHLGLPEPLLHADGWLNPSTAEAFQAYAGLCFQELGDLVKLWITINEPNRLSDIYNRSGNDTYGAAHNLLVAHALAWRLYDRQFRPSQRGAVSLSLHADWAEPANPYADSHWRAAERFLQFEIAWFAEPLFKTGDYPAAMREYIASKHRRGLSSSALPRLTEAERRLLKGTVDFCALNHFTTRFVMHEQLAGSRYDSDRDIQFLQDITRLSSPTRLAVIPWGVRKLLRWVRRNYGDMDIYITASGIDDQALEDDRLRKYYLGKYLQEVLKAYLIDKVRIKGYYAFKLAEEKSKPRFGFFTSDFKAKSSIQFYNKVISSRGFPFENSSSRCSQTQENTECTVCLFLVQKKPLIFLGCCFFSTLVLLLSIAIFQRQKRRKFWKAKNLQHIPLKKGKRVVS
19C26,A^26, sequence (O95750 other isoform, or with tags, fused parts or gaps): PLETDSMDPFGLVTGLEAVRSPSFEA
FGF21-19A hybrid, sequence (Q9NSA1 other isoform, or with tags, fused parts or gaps): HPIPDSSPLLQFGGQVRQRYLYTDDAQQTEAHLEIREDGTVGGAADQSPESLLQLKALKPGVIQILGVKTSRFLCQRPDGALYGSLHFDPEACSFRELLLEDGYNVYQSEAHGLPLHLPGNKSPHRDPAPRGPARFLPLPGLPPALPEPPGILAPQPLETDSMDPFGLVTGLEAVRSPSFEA

Row | pERK agonism in 293/KLB and Hep3B cells, potency relative to native FGF21 [1] | potency of inhibition of FGF21 and FGF19 pERK signalling in 293/KLB cells, relative to 19C26, 21C25 and FGF21^18−181 [2] | Substance
1 | 10 fold |  | FGF21-19A hybrid (from UniProt Q9NSA1 29-184; O95750 191-216) (ligand)
2 |  | > 20 fold | 19C26,A^26 (from UniProt O95750 191-216) (peptide)
